Test results published in US20140274782A1, “AFFINITY REAGENTS AND METHODS FOR DETECTION, PURIFICATION, AND PROTEOMIC ANALYSIS OF METHYLATED PROTEINS” (The Board of Trustees of the Leland Stanford Junior …, priority 2013, published 2014).

Tests used:
Experiment in all cases: ProtoArray methylated with G9a SET domain
[1] = target: AP1S1, G9a-methylated (human) (UniProt P61966)
[2] = target: ARL6IP1, G9a-methylated (human) (UniProt Q15041)
[3] = target: C10orf58, G9a-methylated (human) (UniProt Q9BRX8)
[4] = target: C11orf73, G9a-methylated (human) (UniProt Q53FT3)
[5] = target: C12orf60, G9a-methylated (human) (UniProt Q5U649)
[6] = target: CALN1, G9a-methylated (human) (UniProt Q9BXU9)
[7] = target: CDC2, G9a-methylated (human) (UniProt P06493)
[8] = target: CLDN15, G9a-methylated (human) (UniProt P56746)
[9] = target: CTSZ, G9a-methylated (human) (UniProt Q9UBR2)
[10] = target: CUTC, G9a-methylated (human) (UniProt Q9NTM9)
[11] = target: DNTT, G9a-methylated (human) (UniProt P04053)
[12] = target: FKBP14, G9a-methylated (human) (UniProt Q9NWM8)
[13] = target: FTH1 (hit 109), G9a-methylated (human) (UniProt P02794)
[14] = target: GHRL, G9a-methylated (human) (UniProt Q9UBU3)
[15] = target: GPX5, G9a-methylated (human) (UniProt O75715)
[16] = target: GYPC, G9a-methylated (human) (UniProt P04921)
[17] = target: HIC2, G9a-methylated (human) (UniProt Q96JB3)
[18] = target: HS3ST1, G9a-methylated (human) (UniProt O14792)
[19] = target: KRR1, G9a-methylated (human) (UniProt Q13601)
[20] = target: LPAL2, G9a-methylated (human) (UniProt Q16609)
[21] = target: LRRC20, G9a-methylated (human) (UniProt Q8TCA0)
[22] = target: PPARG, G9a-methylated (human) (UniProt P37231)
[23] = target: PPIL5, G9a-methylated (human) (UniProt Q96L50)
[24] = target: PSMA8, G9a-methylated (human) (UniProt Q8TAA3)
[25] = target: PTCD2, G9a-methylated (human) (UniProt Q8WV60)
[26] = target: RAB33B, G9a-methylated (human) (UniProt Q9H082)
[27] = target: RASSF4, G9a-methylated (human) (UniProt Q9H2L5)
[28] = target: RTN1, G9a-methylated (human) (UniProt Q16799)
[29] = target: SAR1B, G9a-methylated (human) (UniProt Q9Y6B6)
[30] = target: SCGB1A1, G9a-methylated (human) (UniProt P11684)
[31] = target: SH3YL1 (hit 65), G9a-methylated (human) (UniProt Q96HL8)
[32] = target: SSR4, G9a-methylated (human) (UniProt P51571)
[33] = target: TCTA, G9a-methylated (human) (UniProt P57738)
[34] = target: TMEM97, G9a-methylated (human) (UniProt Q5BJF2)
[35] = target: UBE2D2, G9a-methylated (human) (UniProt P62837)
[36] = target: ZBP1, G9a-methylated (human) (UniProt Q9H171)
[37] = target: ZRANB1, G9a-methylated (human) (UniProt Q9UGI0)
Sequence of ZRANB1, G9a-methylated (human) (Q9UGI0 whole entry): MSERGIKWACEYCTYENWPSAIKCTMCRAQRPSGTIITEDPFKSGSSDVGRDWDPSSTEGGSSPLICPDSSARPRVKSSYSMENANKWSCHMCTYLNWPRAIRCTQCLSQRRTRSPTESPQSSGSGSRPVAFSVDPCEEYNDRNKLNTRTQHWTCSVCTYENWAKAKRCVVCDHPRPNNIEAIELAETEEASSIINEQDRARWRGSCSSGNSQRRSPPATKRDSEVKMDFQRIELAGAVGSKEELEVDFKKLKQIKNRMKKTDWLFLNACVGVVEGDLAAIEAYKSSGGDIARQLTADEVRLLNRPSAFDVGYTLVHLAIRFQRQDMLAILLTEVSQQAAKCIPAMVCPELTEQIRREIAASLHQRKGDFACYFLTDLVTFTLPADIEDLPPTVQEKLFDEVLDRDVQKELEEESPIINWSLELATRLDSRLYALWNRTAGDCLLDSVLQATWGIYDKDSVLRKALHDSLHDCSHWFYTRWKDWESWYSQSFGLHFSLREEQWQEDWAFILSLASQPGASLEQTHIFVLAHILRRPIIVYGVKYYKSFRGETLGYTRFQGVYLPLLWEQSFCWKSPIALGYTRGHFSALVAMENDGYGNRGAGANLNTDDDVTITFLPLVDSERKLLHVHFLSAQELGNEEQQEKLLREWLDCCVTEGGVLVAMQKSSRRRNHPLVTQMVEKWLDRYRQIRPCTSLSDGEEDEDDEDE

Sequence of UBE2D2, G9a-methylated (human) (P62837 whole entry): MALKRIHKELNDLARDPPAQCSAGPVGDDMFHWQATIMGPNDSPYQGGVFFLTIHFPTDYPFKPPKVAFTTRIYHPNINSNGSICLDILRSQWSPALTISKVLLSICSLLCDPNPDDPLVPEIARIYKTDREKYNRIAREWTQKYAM
Sequence of TMEM97, G9a-methylated (human) (Q5BJF2 whole entry): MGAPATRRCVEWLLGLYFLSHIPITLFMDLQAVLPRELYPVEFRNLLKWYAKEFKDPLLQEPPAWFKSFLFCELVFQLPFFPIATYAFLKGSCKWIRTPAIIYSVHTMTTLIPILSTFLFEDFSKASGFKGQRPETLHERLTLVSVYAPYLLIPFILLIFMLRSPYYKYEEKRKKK
Sequence of SAR1B, G9a-methylated (human) (Q9Y6B6 whole entry): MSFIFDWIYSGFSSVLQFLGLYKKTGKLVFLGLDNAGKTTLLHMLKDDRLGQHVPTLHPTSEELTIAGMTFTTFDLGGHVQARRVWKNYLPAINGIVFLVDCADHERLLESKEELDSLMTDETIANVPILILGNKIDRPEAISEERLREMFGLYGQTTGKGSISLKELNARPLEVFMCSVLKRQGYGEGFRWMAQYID
Sequence of PTCD2, G9a-methylated (human) (Q8WV60 whole entry): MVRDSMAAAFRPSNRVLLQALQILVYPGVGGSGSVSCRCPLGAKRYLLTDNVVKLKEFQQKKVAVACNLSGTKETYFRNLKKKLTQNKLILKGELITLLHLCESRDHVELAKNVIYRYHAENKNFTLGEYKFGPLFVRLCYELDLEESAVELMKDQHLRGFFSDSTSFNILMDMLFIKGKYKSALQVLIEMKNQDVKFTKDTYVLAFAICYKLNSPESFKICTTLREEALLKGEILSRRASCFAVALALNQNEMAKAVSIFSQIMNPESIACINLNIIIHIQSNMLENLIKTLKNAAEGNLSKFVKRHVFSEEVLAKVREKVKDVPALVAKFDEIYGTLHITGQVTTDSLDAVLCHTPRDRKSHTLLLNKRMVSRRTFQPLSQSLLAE
Sequence of C10orf58, G9a-methylated (human) (Q9BRX8 whole entry): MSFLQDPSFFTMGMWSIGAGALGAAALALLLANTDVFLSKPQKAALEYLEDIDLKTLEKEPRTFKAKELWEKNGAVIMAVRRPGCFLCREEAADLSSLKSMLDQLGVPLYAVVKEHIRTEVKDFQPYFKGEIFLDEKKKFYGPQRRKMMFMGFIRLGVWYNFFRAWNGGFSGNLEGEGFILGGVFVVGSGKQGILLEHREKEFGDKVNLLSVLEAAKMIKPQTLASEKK
Sequence of FKBP14, G9a-methylated (human) (Q9NWM8 20-211 limits assumed): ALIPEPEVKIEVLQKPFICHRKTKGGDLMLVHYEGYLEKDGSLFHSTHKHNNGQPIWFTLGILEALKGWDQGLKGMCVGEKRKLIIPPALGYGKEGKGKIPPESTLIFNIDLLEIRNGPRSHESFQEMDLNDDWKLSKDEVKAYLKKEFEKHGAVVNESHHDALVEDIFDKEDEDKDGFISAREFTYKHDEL
Sequence of LRRC20, G9a-methylated (human) (Q8TCA0 whole entry): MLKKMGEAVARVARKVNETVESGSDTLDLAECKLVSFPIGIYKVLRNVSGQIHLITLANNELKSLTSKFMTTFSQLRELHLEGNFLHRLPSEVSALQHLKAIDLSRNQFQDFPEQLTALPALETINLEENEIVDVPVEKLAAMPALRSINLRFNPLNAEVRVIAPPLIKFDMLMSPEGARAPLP
Sequence of SCGB1A1, G9a-methylated (human) (P11684 22-91 limits assumed): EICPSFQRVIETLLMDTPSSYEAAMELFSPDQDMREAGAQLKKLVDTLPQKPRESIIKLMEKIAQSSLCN
Sequence of HIC2, G9a-methylated (human) (Q96JB3 whole entry): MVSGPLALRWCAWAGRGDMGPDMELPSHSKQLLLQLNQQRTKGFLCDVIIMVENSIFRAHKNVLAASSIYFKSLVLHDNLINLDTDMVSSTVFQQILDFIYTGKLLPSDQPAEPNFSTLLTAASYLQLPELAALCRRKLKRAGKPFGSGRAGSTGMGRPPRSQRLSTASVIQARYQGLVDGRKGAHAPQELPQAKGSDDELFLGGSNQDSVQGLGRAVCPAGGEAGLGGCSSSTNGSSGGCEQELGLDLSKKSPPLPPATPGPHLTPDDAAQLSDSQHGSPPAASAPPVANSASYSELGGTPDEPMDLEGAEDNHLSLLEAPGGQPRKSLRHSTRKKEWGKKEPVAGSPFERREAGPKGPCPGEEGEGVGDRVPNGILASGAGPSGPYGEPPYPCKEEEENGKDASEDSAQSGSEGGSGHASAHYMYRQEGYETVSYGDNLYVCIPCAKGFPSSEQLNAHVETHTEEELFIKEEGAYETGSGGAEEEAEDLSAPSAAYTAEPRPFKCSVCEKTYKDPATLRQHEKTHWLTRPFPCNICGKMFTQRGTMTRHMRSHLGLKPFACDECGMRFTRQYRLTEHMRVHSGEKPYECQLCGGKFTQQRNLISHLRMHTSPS
Sequence of SSR4, G9a-methylated (human) (P51571 24-173 limits assumed): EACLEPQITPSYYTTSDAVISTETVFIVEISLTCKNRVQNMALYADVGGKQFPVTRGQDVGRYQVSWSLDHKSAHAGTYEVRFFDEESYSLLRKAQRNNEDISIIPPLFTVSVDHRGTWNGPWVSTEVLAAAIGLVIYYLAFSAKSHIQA
Sequence of TCTA, G9a-methylated (human) (P57738 whole entry): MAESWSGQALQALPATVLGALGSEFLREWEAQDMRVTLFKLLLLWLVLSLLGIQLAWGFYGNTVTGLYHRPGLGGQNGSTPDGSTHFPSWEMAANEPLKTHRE
Sequence of ARL6IP1, G9a-methylated (human) (Q15041 whole entry): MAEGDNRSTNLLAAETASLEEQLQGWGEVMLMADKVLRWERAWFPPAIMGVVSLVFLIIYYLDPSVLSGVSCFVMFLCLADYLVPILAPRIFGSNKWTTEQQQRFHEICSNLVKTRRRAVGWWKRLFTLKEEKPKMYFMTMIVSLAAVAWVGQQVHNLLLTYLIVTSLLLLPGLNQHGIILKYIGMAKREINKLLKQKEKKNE
Sequence of LPAL2, G9a-methylated (human) (Q16609 22-132 limits assumed): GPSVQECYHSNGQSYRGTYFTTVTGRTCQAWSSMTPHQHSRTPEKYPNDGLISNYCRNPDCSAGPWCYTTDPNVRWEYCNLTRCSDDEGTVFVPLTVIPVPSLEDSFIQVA
Sequence of C12orf60, G9a-methylated (human) (Q5U649 whole entry): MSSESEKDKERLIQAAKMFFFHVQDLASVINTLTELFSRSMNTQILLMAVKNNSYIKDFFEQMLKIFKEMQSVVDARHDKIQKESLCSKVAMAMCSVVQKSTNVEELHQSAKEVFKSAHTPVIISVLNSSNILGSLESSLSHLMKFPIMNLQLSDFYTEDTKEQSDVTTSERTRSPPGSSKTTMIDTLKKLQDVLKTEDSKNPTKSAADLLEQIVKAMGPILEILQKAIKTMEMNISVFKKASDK
Sequence of RAB33B, G9a-methylated (human) (Q9H082 whole entry): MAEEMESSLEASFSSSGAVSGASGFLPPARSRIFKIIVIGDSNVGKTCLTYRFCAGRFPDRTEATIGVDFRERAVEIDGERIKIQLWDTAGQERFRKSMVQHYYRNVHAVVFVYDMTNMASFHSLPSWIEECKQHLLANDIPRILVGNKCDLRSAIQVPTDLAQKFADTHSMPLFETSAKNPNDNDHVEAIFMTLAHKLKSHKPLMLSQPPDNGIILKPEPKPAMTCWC
Sequence of PPARG, G9a-methylated (human) (P37231 29-505 limits assumed): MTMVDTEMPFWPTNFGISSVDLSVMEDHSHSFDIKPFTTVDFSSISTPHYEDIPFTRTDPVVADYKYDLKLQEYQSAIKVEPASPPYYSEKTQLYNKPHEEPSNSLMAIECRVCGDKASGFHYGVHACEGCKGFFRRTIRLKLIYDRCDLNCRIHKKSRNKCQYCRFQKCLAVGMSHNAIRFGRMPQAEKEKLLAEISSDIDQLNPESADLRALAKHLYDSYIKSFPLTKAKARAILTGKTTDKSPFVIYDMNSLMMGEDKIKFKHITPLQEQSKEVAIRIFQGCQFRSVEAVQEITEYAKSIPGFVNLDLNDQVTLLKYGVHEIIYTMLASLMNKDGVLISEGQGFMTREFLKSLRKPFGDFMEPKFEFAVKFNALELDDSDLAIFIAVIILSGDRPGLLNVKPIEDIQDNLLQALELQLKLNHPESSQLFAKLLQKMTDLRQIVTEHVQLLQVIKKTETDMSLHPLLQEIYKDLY
Sequence of GPX5, G9a-methylated (human) (O75715 other isoform, or with tags, fused parts or gaps limits assumed): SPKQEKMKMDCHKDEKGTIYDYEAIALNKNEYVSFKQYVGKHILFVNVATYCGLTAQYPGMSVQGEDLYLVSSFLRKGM
Sequence of C11orf73, G9a-methylated (human) (Q53FT3 whole entry): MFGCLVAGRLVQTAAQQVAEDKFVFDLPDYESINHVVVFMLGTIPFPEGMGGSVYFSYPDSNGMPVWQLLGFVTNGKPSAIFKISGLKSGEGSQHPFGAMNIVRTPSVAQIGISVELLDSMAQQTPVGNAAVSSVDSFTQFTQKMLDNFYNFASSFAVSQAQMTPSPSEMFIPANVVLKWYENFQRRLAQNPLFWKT

G9a Average SNR [1]: 16.6
G9a Average SNR [2]: 21.8
G9a Average SNR [3]: 17
G9a Average SNR [4]: 13.5
G9a Average SNR [5]: 12.4
G9a Average SNR [6]: 18.6
G9a Average SNR [7]: 25.3
G9a Average SNR [8]: 25
G9a Average SNR [9]: 13.6
G9a Average SNR [10]: 13.6
G9a Average SNR [11]: 49.9
G9a Average SNR [12]: 15
G9a Average SNR [13]: 38.7
G9a Average SNR [14]: 24.5
G9a Average SNR [15]: 25.5
G9a Average SNR [16]: 13.4
G9a Average SNR [17]: 16.7
G9a Average SNR [18]: 13.3
G9a Average SNR [19]: 29.8
G9a Average SNR [20]: 33.3
G9a Average SNR [21]: 32.3
G9a Average SNR [22]: 12.8
G9a Average SNR [23]: 11.8
G9a Average SNR [24]: 13.1
G9a Average SNR [25]: 19.4
G9a Average SNR [26]: 20.2
G9a Average SNR [27]: 15.7
G9a Average SNR [28]: 14.7
G9a Average SNR [29]: 19.8
G9a Average SNR [30]: 19.6
G9a Average SNR [31]: 16.5
G9a Average SNR [32]: 14.4
G9a Average SNR [33]: 16.4
G9a Average SNR [34]: 21.2
G9a Average SNR [35]: 37.2
G9a Average SNR [36]: 14.7
G9a Average SNR [37]: 13.2
Substance: 3× Flag-3×MBT (designed binder)
